Assay: soluble on expression in E. coli; label from the status in PepcDB or PDB records

Question: With “MGSDKIHHHHHHMFEKRVLKIKGGSNFRDLGGYQTHDGKKILWGRLFRGSALNNFTNHDLRVLKRRHINTIIDFRSLDESLNDPDIYPETSNDIRLTVLDQDTTYSTITPEEFHRLSHSNGFAYKQMMNTYRRLITDEFSQQAYRQFFDYLLNQDDGAILFHCTKGKDRTGIATALFFLAVGIDKKTIFQDYLLTDTYNHEQTEVELERMVERGEDDDDIDNVKHFLLTDRNYLENAFAAMDEIAGSPQAYLKKYLGLSDEKIQILRNKYLS” as the sequence, how does the “soluble on expression in E. coli” value read?
Answer: not soluble

Question: With “KCETKEKGAITAKELYTMMTDKNISLIIMDARRMQDYQDSCILHSLSVPEEAISPGVTASWIEAHLPDDSKDTWKKRGNVEYVVLLDWFSSAKDLQIGTTLRSLKDALFKWESKTVLRNEPLVLEGGYENWLLCYPQYTTNAKV” as the sequence, how does the “soluble on expression in E. coli” value read?
Answer: soluble

Question: For “MSLGNTTVVTTTVRNATPSLTLDAGTIERFLAHSHRRRYPTRTDVFRPGDPAGTLYYVISGSVSIIAEEDDDRELVLGYFGSGEFVGEMGLFIESDTREVILRTRTQCELAEISYERLQQLFQTSLSPDAPRILYAIGVQLSKRLLDTTRKASRLAFLDVTDRIVRTLHDLSKEPEAMSHPQGTQLRVSRQELARLVGCSREMAGRVLKKLQADGLLHARGKTVVLYGTR”, which “soluble on expression in E. coli” value is on record?
Answer: soluble

Question: For “MGSDKIHHHHHHMKTWTPDLSRSDGPRYLAIADVIEMDLKSGRLLVGDRLPPQRDLAKRLAIDFTTVARGYVEAQKRGLVATHVGRGTFVTGGPEKERRGFVSEAALDARRMSVVDFSMNMPPEPDDPDLLARMQEGLSAVATNMIPLLRYQGFGGAGMDKEAAASWLSRRGLVPSQERIFVTPGAHPALLAIFGLLAKPGEMVLSENITYPGMRSIAAQLRLNLTGLPMDADGIIPGAFAEICETAKPKALYLNPTLQNPMTLTIPEKRREEICAVARKYHVPIVEDDAYGFIPLHSPAPLAAMAPDLTWHIGGLAKCIGAGLRLAYVVVPDTKAAWPFASAMRAASVMASPLSAALATRWIEDGTADSILRFIRTEAAARQALVAEVLPAGSYQSDPISFNIWLPLTNGWTRSTFGTHMRASGIGVVASDAFTVDGVAEEAVRVCLGGPIRRETLKGALEFMGHALEGSPQMAGTFF”, which “soluble on expression in E. coli” value is on record?
Answer: not soluble

Question: For “MSLAADTLRIKQLQRCGDLFSDSQQRWCLCAEGLRANLPTVWLGGTRLSEADIERQGDRLTLKLARQAQRSAPLWLADGGRTSNPVWLTRQRSHVIAAGPDEVAKNMDGLTTYVDLVSLLIEEKYDGLGEARRIAGKYGAQVVGAIPPLNVYQLRLPVEDLVQRDAMVLRMGSEVSVDAVIVEESAPERGEEGNGRGTRAIDQADEWAANRFMDALYFYRRRIAASGLPVKPVRVGVIEREVDFDAPGFSHYRGGCEQGQTCLYARDGNRPASHGSHVAGILAAQGEGFLPGLGKHSPGFEVMVERNSDAGITANIAASVNLVEDGVRVLNWSWGIHRVGARDVNGDEVDSLVRSGLAMSGYEELLEEFFLWLRKEHPDVVVVNSAGNGASWSGTDEYRLPSSFITEQLLVVGGHQRSGKATAVEAHDHVRKRHSSNIDMRVDVSAAACIRPVSAEAAHCGTSYATPLVTATVATMLSINPALTPEQVRMLLRRSALTLGAEQDFEAMDAEDLTAPILPSERGGRLNDPDLGRSARLDMQRALDLAVQSLERVREGHHHHHH”, which “soluble on expression in E. coli” value is on record?
Answer: not soluble

Question: Which “soluble on expression in E. coli” value does the source give for “SGKCYLSLHEHNSSANRGACAQICRRGYTVKDKDSGLELDIENQYIMSPKDLKTIHFINKMMDAGVRVFKIEGRARGPEYVYTVCRCYKEAIEAYCNGTYDEESIGRWDEQLATVFNRGFWDGYYLGQRLGEWTHRYGSGATRQKIYVGKGIKYFSRLGVAEFEIESGELHIGDEIVITGPTTGVIIQKVEEIRYELQTVEKATKGQRISIPVKEKVRPSDKLYRFDKRE” here?
Answer: not soluble

Question: Which “soluble on expression in E. coli” value does the source give for “MNIKFKPVEPADRSAITTITFSSVARICDLAFSNLYCWSFVYGTSWAIVEGCLIIRFKPKSRSHPVYLFPVGADPEQVVAAAHRLKAEVVHEDYPLIFMGVTPDIHRCIEEHCSAEYYFIEDEAYCDYIYERESLATLSGKKLQAKRNHINKFVSLYPDYTYDPVKDSDAEECLMLAHLWLDSRGDQDGRELEVEMVERAFRHRQELGLSGGVLRVGGRVVAFCLGSPINTDTFGVHIEKADAMVEGAFAMINREFARSIPDTFRYINREEDLGLPGLRQAKLSYRPAILLPKQTAILRRDHDRIQA” here?
Answer: not soluble

Question: With “MPWQQQPIRYSADLEKPSPREQADIEKIMAKLLKNNERAYDKYKHGLRDAHAKSHAILRGELIVNEGLPPELAQGLFAEPRTYPVIARLSSTSGVRRSDKTRGVRGLGLKVLGVQGEKILPDDSSTNQDFVMVTHEDFLFADAHAYAGLGMITASLLARLSDQALWLGSGLLDLVSKAGIKLPDNLMVFVAPNRPILGLEFFSSAPFRHGDHVAKYRFAPASENVKALSGQLLPRNPAPEQHRDMIAEFFADQTAEFDFSAQLCTDPVAMPIEDAGKNWDKSISPYVSVAKIVFGPQNPYSALRRAYGDDVLAFNSWRGLAEHRPLGSINRLKKTVYESSADYRHRVNRIDRHEPVDISELPDLEHHHHHH” as the sequence, how does the “soluble on expression in E. coli” value read?
Answer: not soluble

Question: With “MSKTDVKKSREASGILTLQVNLRERRNFLNLMQNKLFSWKIRFSAIKGKCSQKSKYFRRSRSEDCYVEADLKILSRTRRSRKLPGTVPDFLGKQLIGISSSVVSRVSRSCR” as the sequence, how does the “soluble on expression in E. coli” value read?
Answer: soluble

Question: With “MLELDTRQIRMGQRAADKAEALRLLGAALVADGLAAPGYAEGLKAREAQGSTYLGQGIAIPHGTPDTRELVFSTGVRLLQFPEGVDWGDGQQVYLAIGIAAKSDEHLQLLQLLTRALGEADLGPALSAAASAEEVLGLLQGAPQELALDAQLVGLGQNAEDLDELAWLGARLLKKAGCVENGFAAVLQQTEPLPLGDGLCWLHSEQLVKRPGLAFVTPAQPLQHQGQLVTGLFCLASLGEAHQALLERLCDLLLEGRGAELVRATSSRSVLAALGGELPPDWPSARAVLANPHGLHARPAQALAQLAKGFAGEIRVRLADSEAAPVSAKSLSKLLALGARRGQTLEFSAEPAIAEDALPALLAAVREGLGEEVEALAEEALPDAVGEAEEDARPAPLRAGERLQAIAASPGIASGPAHVQVAQRFEFQPRGESPAHERERLLRAKRAVDEEIVGLVERSTVKAIREIFVTHREMLDDPELAEQVQLRLNRGESAEAAWSRVVEDSAAQQEALHDALLAERAADLRDLGRRVLARLCGVEAPREPEQPYILVMDEVGPSDVARLDAQRVAGILTARGGATSHSAIIARALGIPALVGAGAAVLGLEPGTALLLDGEHGWLQVAPSTEQLQQAAAERDARQQRQARADAQRLEPARTRDGHAVEVCANLGDTAGAARAVELGAEGVGLLRTEFVFMNNARAPDLATQEAEYRRVLDALDGRPLVARTLDVGGDKPLPYWPIPHEENPYLGLRGIRLTLQRPQILETQLRALFRAAGERPLRVMFPMVGSLDEWRQARDLALRLREEIPLADLQLGIMVEVPSAALLAPVLAREVDFFSVGTNDLTQYTLAIDRGHPSLSAQADGLHPAVLQLIDMTVRAAHAEGKWVGVCGELAADPLALPLLVGLGVDELSVSARSIALVKAGVRELQLVAARGLARKALGLASAAEVRA” as the sequence, how does the “soluble on expression in E. coli” value read?
Answer: not soluble

Question: Which “soluble on expression in E. coli” value does the source give for “MKDDPKVHLEAKELWDQFHKRGTEMVITKSGRRMFPPFKVRCSGLDKKAKYILLMDIIAADDCRYKFHNSRWMVAGKADPEMPKRMYIHPDSPATGEQWMSKVVTFHKLKLTNNISDKHGFTILNSMHKYQPRFHIVRANDILKLPYSTFRTYLFPETEFIAVTAYQNDKITQLKIDNNPFAKGFRDTGNGRR” here?
Answer: soluble

Question: With “MDGILSHNSKKTADFDEYELYRRLKSWYKEDVEHVNEWREQAREDFDFYNGRQWAEEDLAVLKAQRRPVMTFNRIAPLVNAIVGAERNNKREVQFQPRQAGAAISNELLTGAAEWFRDEAEAEYADSDAFQDMVICGMGWTDTRLDYETDPEGIPAIQRLDPLKMVWDANAVRPNLIDAQRMWYVDRKPVEDAKSLFPDVAVEDLHADWATDNTTACEEYHVSLDAYNDHANADSLSQSASEKRYVTLVECRWFEYEVYFKAPDLQTGQMRSYSKQEFEQLQRVAPQLQGVRFNKKVVKRAFLGRRLLAKPDKPLAPDGQLGWECITGTLDKLKNQFYGIVRPAKDPQKWSNKYFSQVMYILNSQAKGGLMAERGAFDDERQALENWTRTDTITWVKNGALTGGKIQPKPSAQFPNGFFQLFNESREAITHVTGLSAEFIGTREVNQANVLENTRRQSTLNLLAGLFDNLKLYRCRQGKIILYLIQNYLSDGRLVRISGPENAQYVPLTREAVTKLEYDIIVDDSPTSPNEKERTFAAITQMLPLLGGFLTPEMIPDLLKLSPLPATLVANLTAKAQQAQQEQQQQQMMQQNQGTQLNPEQQAKIAALQQEAQAKGTLYQLDAQQKQLALQQKNIELFLKQEQARMQLELQRAKNEIAQRDLERKSLQAQLEHYRVLTKRLIPH” as the sequence, how does the “soluble on expression in E. coli” value read?
Answer: not soluble

Question: With “MSLTPEKLPLHVLLAEDSVVNQKVALSMLGKLGCFPDVAANGREAIDAMRQKRYDLVFMDCQMPEIDGYEVTRRIRKDHSLLCSPDIPVVAMTANAMKGDREKCIDAGMDDFMAKPLKKSDFQAIFERYFPGLFVRESSKEAGAGALTTDDVFLIDDVLFRLQNDREIILIIIGQFLLEAALQITELQAAAAEHDTERVRILSHTIKGAAATVGGQELSRCAAIIEQGAKSGDLTGIDEHLRDLNASYLRFKERVEASGWCEEGGEGHHHHHH” as the sequence, how does the “soluble on expression in E. coli” value read?
Answer: soluble

Question: Which “soluble on expression in E. coli” value does the source give for “MGSDKIHHHHHHMEKLYLKIGNQDEFDICEKVQGLHFLSDDSTPVTTNQFLEISGADGSQFQYATFGKYQVVANFFLEFKSWEDYKLAKHQINRIFSTKKLIRMRTNVESAIVRYVYPNFPEIKPISDGANSSTFSVNFDNPSGYRYSIDRSDELSKVQYGMYLLDNIYPEYRFTDKSFRVYNPSDIAIDPYLGKHDLKIISKFSGNSLKITNTTNGTSWSYNKSSNGSETVLLDGIVTTVNGNPATVNTDYGHIVLNTGWNDIVVSGTNSNDITFSFPFIYI” here?
Answer: not soluble

Question: For “MSRTVMCRKYHEELPGLDRPPYPGAKGEDIYNNVSRKAWDEWQKHQTMLINERRLNMMNAEDRKFLQQEMDKFLSGEDYAKADGYVPPSA”, which “soluble on expression in E. coli” value is on record?
Answer: soluble

Question: With “MPNLNAVIAQNISKGDVIWVPYRKDPMWPALVNNAYPKKVSYSFFPLAPGVDETKRSRFSCAPKLTYALVTTEPLPENANSDLKKAHRAACEYLSSNGKTRGSNIQSLGEAAGGSEKMKKMNGEVTKNKTGKPEKRKKKVDSEQQENEEDDEDLMSPVSKKPSSSERSTPSGSQQQPPITEEQSKSMMKMIDDRFEVLINEIWKSDEVAQSKNQTMKDKMTIKLKNNQFLKESDYDIVFERIFNFIRMQNPSLSFISTFNITSSHIIPHILITCYSACRNLDYQTSKEIFYQLNTRVLGLDSSMSIPVTDHLEELCRLACDESDAIQILENEHGDKISKDGTATQTRGNVFEEMR” as the sequence, how does the “soluble on expression in E. coli” value read?
Answer: not soluble

Question: With “GPLGSTSLVQGLTPPPDFNQCLKNSPDEKFFSDFSNNMGSRKNPDPLATEEVPNQEQIPEEGFIHTQYGQKPEQPSGASAGHRFPQGYHSDKRRLSKASSKARSDDLSV” as the sequence, how does the “soluble on expression in E. coli” value read?
Answer: soluble

Question: For “MKLVNVTNSYKQLVNKQLENTDAYFVKVYSAGNTTAVYSEAAHHVEVLIMNKNRRIRPTEVKEILAKLLKRLPKEAYDPDEISIIELNHVTEVSVPLKVSLMEN”, which “soluble on expression in E. coli” value is on record?
Answer: not soluble

Question: Which “soluble on expression in E. coli” value does the source give for “MNGYQITFFTQQDRHHAGKPLADWLMHLAAEMGLRGATLIPGSEGMGHDKRFHSVHFFELSDQLLEVVMVVSEEEADQLFARLRAEGVRLFYVKVAAEFGIMD” here?
Answer: not soluble

From the DeepSol protein solubility set
